# Molecular target: T1, Fc protein of human IgG1 antibody (human, UniProt P01857-1 100-330 = IgG part, limits assumed)
# T1 construct: domain: Fc; Immobilised on a CM5 chip by amine coupling at about 1400 RU; also called Fc region of an IgG1 antibody
# Experiment: SPR Biacore T200, 25 C, Fc of human IgG1 amine-coupled on CM5, peptide as analyte, single cycle kinetics
# Description: The affinity between each polypeptide and the Fc region of an IgG1 antibody was evaluated by SPR measurement (Biacore T200 (GE Healthcare)). The measurement was performed at 25° C., and HBS-EP+ was used as the running buffer. The Fc protein of human IgG1 antibody, as the ligand, was diluted to 30 g/mL in sodium acetate buffer, pH 4.5 (GE Healthcare) and immobilized on the surface of a CM5 Sensor Chip (GE Healthcare) at approximately 1400 RU using the amine coupling method. The peptides were diluted to 100 nM in HBS-EP+ buffer containing 0.1% DMSO. The measurement was performed using the single cycle kinetics method, with an analyte injection time of 120 seconds, a flow rate of 30 L/min, and a dissociation time of 120 seconds. The obtained sensorgrams were fitted based on the affinity to calculate the dissociation constant (KD).
row,Binder,Kd [nM]
1,QET-Z34CM-PA32-Fc3K (C-terminal -NH2 as printed in the 1st table; N-terminal Gln designed to be pyroglutamylated) QETFNMQCQRRFYEALHDPNLNEEQRNARIRSIREECGGAAPAAPAPAAPAAPAPAAPAAPAPAAPAAPAPGGRGNCAYHKGQIIWCTYH,7.91
2,QET-Z34CM-PA48-Fc3K (C-terminal -NH2 as printed in the 1st table; N-terminal Gln designed to be pyroglutamylated) QETFNMQCQRRFYEALHDPNLNEEQRNARIRSIREECGGAAPAAPAPAAPAAPAPAAPAAPAPAAPAAPAPAAPAAPAPAAPAAPAPGGRGNCAYHKGQIIWCTYH,8.98
3,QET-Fc3K-PA32-Z34CM (C-terminal -NH2 as printed in the 1st table; N-terminal Gln designed to be pyroglutamylated) QETRGNCAYHKGQIIWCTYHGGAAPAAPAPAAPAAPAPAAPAAPAPAAPAAPAPGGFNMQCQRRFYEALHDPNLNEEQRNARIRSIREEC,12.7
4,QET-Fc3K-PA48-Z34CM (C-terminal -NH2 as printed in the 1st table; N-terminal Gln designed to be pyroglutamylated) QETRGNCAYHKGQIIWCTYHGGAAPAAPAPAAPAAPAPAAPAAPAPAAPAAPAPAAPAAPAPAAPAAPAPGGFNMQCQRRFYEALHDPNLNEEQRNARIRSIREEC,8.48

# — patent US20250101129A1 (AJINOMOTO, published 2025)
